Assay results taken from PMC10522489, “Eukaryotic-like gephyrin and cognate membrane receptor coordinate corynebacterial cell division and polar elongation” (Nature Microbiology, 2023).

B1: Glp (gephyrin-like protein, Cgl0883), untagged (natural protein, Corynebacterium glutamicum ATCC13032, UniProt Q8NS03 1-419, looked up)
chain: MRSVEQQLSIVTEAAVAPEPVRIAIAEALGLMCAEEVQASRALPGFAQAAIDGYAVRAVDVGGEKSLSQQLPVAPPEKSLPVVGEVAAGSQQPLRLQPKQAVMVHTGAPLPMLADAVLPMAWSDRGRKRVTAQRPVRSGEFVRKEGDDIQPGDIAVSAGAVLGPAQIGLLAAVGRSKVLVYPRPRMSVISVGAELVDIDRQPGLGQVYDVNSYSLAAAGREAGADVYRYGIAAGEPRRIKEIIESQMLRSEIIVITGAVGGAGSAGVRQVLNELGDIDTERVAMHPGSVQGFGLLGENKIPCFLLPSNPVASLVIFETFVRPVVRMSLGKSNAARRVVRARALNHVVSVAGRKGFIRSRLMRDAETQDYLVEALGGATGAPSHLLAGLSEANGMIRIPEDVTEIRPGDVVDVIFLAQGR
notes: Glp (gephyrin-like protein, annotated molybdopterin molybdotransferase MoeA), Corynebacterium glutamicum ATCC13032, locus Cgl0883; Homodimer in the crystal structures; Called 'untagged Glp' in the BLI on GlpR; also called gephyrin-like repurposed molybdotransferase; MoeA paralogue; source: E. coli BL21 (DE3), purified (Ni-NTA, SUMO protease, SEC); not shown: His6, N-terminal, cleaved; SUMO, …

Key:
[1] = target: Biotinylated His-GlpR (Corynebacterium glutamicum ATCC13032); assay: BLI; biotinylated GlpR immobilised on streptavidin biosensors; Wag31 150–2.34 μM in buffer A (20 mM HEPES pH 8.5, 150 mM NaCl, DDM 0.05%); 25 °C; apparent Kd from steady-state fit, one-site model
[2] = target: Biotinylated His-GlpR (Corynebacterium glutamicum ATCC13032); assay: BLI; biotinylated GlpR immobilised on streptavidin biosensors; Wag31 1-61 (DivIVA) 200–3.15 μM in buffer B (25 mM HEPES pH 7.5, 150 mM NaCl, 10% glycerol, 0.05% DDM, 1 mg/ml BSA); 25 °C; apparent Kd from steady-state fit, one-site model
[3] = target: the molecule itself; assay: crystal structure; 0.34 mM Glp with 1.7 mM FtsZCTD peptide; 0.1 M NaCl, 0.1 M Bis-Tris pH 6.5, 1.5 M (NH4)2SO4; 2.7 Å
His-SUMO-FtsZ = target: T1, His-SUMO-FtsZ (Corynebacterium glutamicum, UniProt P94337 1-442); assay: BLI; His-SUMO-FtsZ immobilised on Ni-NTA biosensors; Glp 80–1.25 μM in 2-fold dilutions; polymerization buffer (25 mM Pipes pH 6.9, 100 mM KCl, 10 mM MgCl2); 25 °C; apparent Kd from steady-state fit, one-site model; conditions: both partners purified
T1 construct: FtsZ, tubulin-like cell division protein, Corynebacterium glutamicum; Captured on Ni-NTA biosensors; also called 6xHis-SUMO-FtsZ; immobilized SUMO-FtsZ; source: E. coli BL21 (DE3), purified (Ni-NTA, SEC); not shown: His6, N-terminal, kept; SUMO, N-terminal, kept
T1 sequence (looked up): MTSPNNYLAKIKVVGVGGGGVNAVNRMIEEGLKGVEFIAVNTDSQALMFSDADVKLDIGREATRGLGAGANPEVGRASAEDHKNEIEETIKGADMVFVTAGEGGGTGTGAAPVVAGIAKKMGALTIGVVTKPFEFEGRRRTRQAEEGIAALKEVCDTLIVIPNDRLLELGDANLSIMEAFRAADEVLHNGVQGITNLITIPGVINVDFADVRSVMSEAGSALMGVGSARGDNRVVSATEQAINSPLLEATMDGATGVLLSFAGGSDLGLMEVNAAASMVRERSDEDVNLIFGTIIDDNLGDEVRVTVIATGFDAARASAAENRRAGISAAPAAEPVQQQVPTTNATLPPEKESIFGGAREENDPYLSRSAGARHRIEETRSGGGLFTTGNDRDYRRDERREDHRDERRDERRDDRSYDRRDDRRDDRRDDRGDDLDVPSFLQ

[4] = target: B1; assay: differential scanning fluorescence (thermofluor); Glp 3 μg in 25 mM HEPES pH 8, 150 mM NaCl, 5% glycerol with or without 1 mM FtsZCTD; Sypro Orange; 25 to 95 °C; conditions: both partners purified
[5] = target: B1; assay: BLI; C-terminal His-tagged GlpR immobilised on Ni-NTA biosensors; untagged Glp variants (Glp 100–1.56 nM) in 25 mM HEPES pH 7.5, 150 mM NaCl, 10% glycerol, 0.05% DDM, 1 mg/ml BSA; 25 °C; apparent Kd from steady-state fit; conditions: both partners purified

Question: Which Kd [1] does the source give for Wag31, full length (natural protein) here?
Answer: 43.4 µM

Question: Which Kd [2] does the source give for “Wag31_(1–61) (N-terminal DivIVA domain of Wag31) (domain or fragment)” here?
Answer: 14.9 µM

Question: With B1 as the molecule, how does the “stoichiometry N” value [3] read?
Answer: 2

Question: What about the Kd (His-SUMO-FtsZ) of the same molecule?
Answer: 4.7 ± 0.77 µM

B2: FtsZCTD peptide (peptide)
peptide: DDLDVPSFLQ
notes: C-terminal 10 residues of FtsZ, Corynebacterium glutamicum; also called 10-residue peptide FtsZCTD; C-terminal domain of FtsZ; source: synthetic peptide, bought: Genosphere
Question: With B2 as the molecule, how does the “Tm shift of Glp” value [4] read?
Answer: 2 °C

B3: GlpR (Glp receptor, Cgl0885), C-terminal His tag (receptor, Corynebacterium glutamicum ATCC13032, UniProt Q8NS01 1-340, looked up)
chain: MLHVSGILVIGLIVVVWLVVLAPLLLRGQKPIAKAGEAFDDTRVISEGGSNIPSPRRPGLSSAQLDDEEDTDDVDDDYEIVDSPSIFRPRKEEPVEEDLDTDVELEEDIEVSLETDDYVEPAPVVEVSQEWNVEDHYELDDSYDTPLDHLHPAARARAYEDFQEHQPEQQPEVEEFDADDELTEEDVAFAQRRRGRGYYDPEADREFAASQYVRRQRTLLGLAATVVISVILGFVFGGWVWGLPAVALAATALYLMALRSQVREENALRARRIRRLRRSRMGVRNSEDLPSRLRRPGAVVLELDDESPDFEGLPTVAMPEEPYYEEPRRNIRHLGQRRVS
notes: GlpR, integral membrane protein with 3 predicted transmembrane helices, Corynebacterium glutamicum ATCC13032, locus Cgl0885; In 0.05% DDM; also called C-terminal His-tagged GlpR; immobilized GlpR; source: E. coli BL21 (DE3), purified from membranes in DDM (Ni-NTA, SEC); not shown: His6, C-terminal, kept
Question: With B3 as the molecule, how does the Kd [5] read?
Answer: 0.0055 ± 0.00075 µM
